Assay results published in patent US20220074941A1, “HSP90 COMBINATION THERAPY” (Sloan-Kettering Institute for Cancer Research, priority 2011, published 2022).

Columns and labels:
[1] = tested on: Hsp90 complexes in K562 cell extract; test: Nano-LC-MS/MS of PU-beads pull-downs; format: binding; details: protein identified in PU-beads pull-down of K562 cell extract, QSTAR-Elite QTof MS
Outline: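 Lysates pre-cleared overnight at 4 °C with control beads, then pulled down with PU-beads or control beads; eluted proteins (2% SDS boil) gel-separated and analysed by nano LC-MS/MS on a QTof. Mascot identification (p<0.05), spectral counts and sequence coverage evaluated in Scaffold.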

[2] = tested on: Hsp90 complexes in Mia-PaCa-2 cell extract; test: Nano-LC-MS/MS of PU-beads pull-downs; format: binding, human; details: protein identified in PU-beads pull-down of Mia-PaCa-2 cell extract; QSTAR-Elite QTof MS
Outline: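 Lysates pre-cleared overnight at 4 °C with control beads underwent PU-bead pull-down; bound proteins were SDS-eluted, gel-separated, digested and analyzed by nano-LC-MS/MS on a QTof. Identifications used significance p<0.05, 0.4 Da tolerances and one missed cleavage; unique peptide (spectral) counts and sequence coverage were reported.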

Molecule | Number of Assigned Spectra, K562 Prep 1 [1] | Number of Assigned Spectra, K562 Prep 2 [1] | Number of Assigned Spectra, Mia-Paca 2 [2]
SARM1 (protein, UniProt Q6SZW1 28-724, looked up) NAD(+) hydrolase SARM1: LAVPGPDGGGGTGPWWAAGGRGPREVSPGAGTEVQDALERALPELQQALSALKQAGGARAVGAGLAEVFQLVEEAWLLPAVGREVAQGLCDAIRLDGGLDLLLRLLQAPELETRVQAARLLEQILVAENRDRVARIGLGVILNLAKEREPVELARSVAGILEHMFKHSEETCQRLVAAGGLDAVLYWCRRTDPALLRHCALALGNCALHGGQAVQRRMVEKRAAEWLFPLAFSKEDELLRLHACLAVAVLATNKEVEREVERSGTLALVEPLVASLDPGRFARCLVDASDTSQGRGPDDLQRLVPLLDSNRLEAQCIGAFYLCAEAAIKSLQGKTKVFSDIGAIQSLKRLVSYSTNGTKSALAKRALRLLGEEVPRPILPSVPSWKEAEVQTWLQQIGFSKYCESFREQQVDGDLLLRLTEEELQTDLGMKSGITRKRFFRELTELKTFANYSTCDRSNLADWLGSLDPRFRQYTYGLVSCGLDRSLLHRVSEQQLLEDCGIHLGVHRARILTAAREMLHSPLPCTGGKPSGDTPDVFISYRRNSGSQLASLLKVHLQLHGFSVFIDVEKLEAGKFEDKLIQSVMGARNFVLVLSPGALDKCMQDHDCKDWVHKEIVTALSCGKNIVPIIDGFEWPEPQVLPEDMQAVLTFNGIKWSHEYQEATIEKIIRFLQGRSSRDSSAGSDTSLEGAAPMGPT | 0 | 0 | 5
FTSJD2 (protein, UniProt Q8N1G2 1-835, looked up) Cap-specific mRNA …: MKRRTDPECTAPIKKQKKRVAELALSLSSTSDDEPPSSVSHGAKASTTSLSGSDSETEGKQHSSDSFDDAFKADSLVEGTSSRYSMYNSVSQKLMAKMGFREGEGLGKYSQGRKDIVEASSQKGRRGLGLTLRGFDQELNVDWRDEPEPSACEQVSWFPECTTEIPDTQEMSDWMVVGKRKMIIEDETEFCGEELLHSVLQCKSVFDVLDGEEMRRARTRANPYEMIRGVFFLNRAAMKMANMDFVFDRMFTNPRDSYGKPLVKDREAELLYFADVCAGPGGFSEYVLWRKKWHAKGFGMTLKGPNDFKLEDFYSASSELFEPYYGEGGIDGDGDITRPENISAFRNFVLDNTDRKGVHFLMADGGFSVEGQENLQEILSKQLLLCQFLMALSIVRTGGHFICKTFDLFTPFSVGLVYLLYCCFERVCLFKPITSRPANSERYVVCKGLKVGIDDVRDYLFAVNIKLNQLRNTDSDVNLVVPLEVIKGDHEFTDYMIRSNESHCSLQIKALAKIHAFVQDTTLSEPRQAEIRKECLRLWGIPDQARVAPSSSDPKSKFFELIQGTEIDIFSYKPTLLTSKTLEKIRPVFDYRCMVSGSEQKFLIGLGKSQIYTWDGRQSDRWIKLDLKTELPRDTLLSVEIVHELKGEGKAQRKISAIHILDVLVLNGTDVREQHFNQRIQLAEKFVKAVSKPSRPDMNPIRVKEVYRLEEMEKIFVRLEMKIIKGSSGTPKLSYTGRDDRHFVPMGLYIVRTVNEPWTMGFSKSFKKKFFYNKKTKDSTFDLPADSIAPFHICYYGRLFWEWGDGIRVHDSQKPQDQDKLSKEDVLSFIQMHRA | 3 | 1 | 0
NFKB1 (protein) MAEDDPYLGRPEQMFHLDPSLTHTIFNPEVFQPQMALPTDGPYLQILEQPKQRGFRFRYVCEGPSHGGLPGASSEKNKKSYPQVKICNYVGPAKVIVQLVTNGKNIHLHAHSLVGKHCEDGICTVTAGPKDMVVGFANLGILHVTKKKVFETLEARMTEACIRGYNPGLLVHPDLAYLQAEGGGDRQLGDREKELIRQAALQQTKEMDLSVVRLMFTAFLPDSTGSFTRRLEPVVSDAIYDSKAPNASNLKIVRMDRTAGCVTGGEEIYLLCDKVQKDDIQIRFYEEEENGGVWEGFGDFSPTDVHRQFAIVFKTPKYKDINITKPASVFVQLRRKSDLETSEPKPFLYYPEIKDKEEVQRKRQKLMPNFSDSFGGGSGAGAGGGGMFGSGGGGGGTGSTGPGYSFPHYGFPTYGGITFHPGTTKSNAGMKHGTMDTESKKDPEGCDKSDDKNTVNLFGKVIETTEQDQEPSEATVGNGEVTLTYATGTKEESAGVQDNLFLEKAMQLAKRHANALFDYAVTGDVKMLLAVQRHLTAVQDENGDSVLHLAIIHLHSQLVRDLLEVTSGLISDDIINMRNDLYQTPLHLAVITKQEDVVEDLLRAGADLSLLDRLGNSVLHLAAKEGHDKVLSILLKHKKAALLLDHPNGDGLNAIHLAMMSNSLPCLLLLVAAGADVNAQEQKSGRTALHLAVEHDNISLAGCLLLEGDAHVDSTTYDGTTPLHIAAGRGSTRLAALLKAAGADPLVENFEPLYDLDDSWENAGEDEGVVPGTTPLDMATSWQVFDILNGKPYEPEFTSDDLLAQGDMKQLAEDVKLQLYKLLEIPDPDKNWATLAQKLGLGILNNAFRLSPAPSKTLMDNYEVSGGTVRELVEALRQMGYTEAIEVIQAASSPVKTTSQAHSLPLSPASTRQQIDELRDSDSVCDSGVETSFRKLSFTESLTSGASLLTLNKMPHDYGQEGPLEGKI | 1 | 0 | 2
DIABLO (protein, UniProt Q9NR28 22-239, looked up) Diablo IAP-binding …: LCVPVVANFKKRCFSELIRPWHKTVTIGFGVTLCAVPIAQKSEPHSLSSEALMRRAVSLVTDSTSTFLSQTTYALIEAITEYTKAVYTLTSLYRQYTSLLGKMNSEEEDEVWQVIIGARAEMTSKHQEYLKLETTWMTAVGLSEMAAEAAYQTGADQASITARNHIQLVKLQVEEVHQLSRKAETKLAEAQIEELRQKTQEEGEERAESEQEAYLRED | 1 | 0 | 2
SLC3A2 (protein, UniProt P08195 1-630, looked up) Amino acid transporter heavy …: MELQPPEASIAVVSIPRQLPGSHSEAGVQGLSAGDDSELGSHCVAQTGLELLASGDPLPSASQNAEMIETGSDCVTQAGLQLLASSDPPALASKNAEVTGTMSQDTEVDMKEVELNELEPEKQPMNAASGAAMSLAGAEKNGLVKIKVAEDEAEAAAAAKFTGLSKEELLKVAGSPGWVRTRWALLLLFWLGWLGMLAGAVVIIVRAPRCRELPAQKWWHTGALYRIGDLQAFQGHGAGNLAGLKGRLDYLSSLKVKGLVLGPIHKNQKDDVAQTDLLQIDPNFGSKEDFDSLLQSAKKKSIRVILDLTPNYRGENSWFSTQVDTVATKVKDALEFWLQAGVDGFQVRDIENLKDASSFLAEWQNITKGFSEDRLLIAGTNSSDLQQILSLLESNKDLLLTSSYLSDSGSTGEHTKSLVTQYLNATGNRWCSWSLSQARLLTSFLPAQLLRLYQLMLFTLPGTPVFSYGDEIGLDAAALPGQPMEAPVMLWDESSFPDIPGAVSANMTVKGQSEDPGSLLSLFRRLSDQRSKERSLLHGDFHAFSAGPGLFSYIRHWDQNERFLVVLNFGDVGLSAGLQASDLPASASLPAKADLLLSTQPGREEGSPLELERLKLEPHEGLLLRFPYAA | 3 | 0 | 0
